Measured values taken from doi:10.1101/2025.06.10.658980, “Structures reveal how the Cas1-2/3 integrase captures, delivers, and integrates foreign DNA into CRISPR loci” (bioRxiv, 2025).

B1: Cas2/3 fusion protein (type I-F, Pseudomonas aeruginosa PA14), untagged (enzyme)
chain: MNILLVSQCEKRALSETRRILDQFAERRGERTWQTPITQAGLDTLRRLLKKSARRNTAVACHWIRGRDHSELLWIVGDASRFNAQGAVPTNRTCRDILRKEDENDWHSAEDIRLLTVMAALFHDIGKASQAFQAKLRNRGKPMADAYRHEWVSLRLFEAFVGPGSSDEDWLRRLADKRETGDAWLSQLARDDRQSAPPGPFQKSRLPPLAQAVGWLIVSHHRLPNGDHRGSASLARLPAPIQSQWCGARDADAKEKAACWQFPHGLPFASAHWRARTALCAQSMLERPGLLARGPALLHDSYVMHVSRLILMLADHHYSSLPADSRLGDPNFPLHANTDRDSGKLKQRLDEHLLGVALHSRKLAGTLPRLERQLPRLARHKGFTRRVEQPRFRWQDKAYDCAMACREQAMEHGFFGLNLASTGCGKTLANGRILYALADPQRGARFSIALGLRSLTLQTGQAYRERLGLGDDDLAILVGGSAARELFEKQQERLERSGSESAQELLAENSHVHFAGTLEDGPLREWLGRNSAGNRLLQAPILACTIDHLMPASESLRGGHQIAPLLRLMTSDLVLDEVDDFDIDDLPALSRLVHWAGLFGSRVLLSSATLPPALVQGLFEAYRSGREIFQRHRGAPGRATEIRCAWFDEFSSQSSAHGAVTSFSEAHATFVAQRLAKLEQLPPRRQAQLCTVHAAGEARPALCRELAGQMNTWMADLHRCHHTEHQGRRISFGLLRLANIEPLIELAQAILAQGAPEGLHVHLCVYHSRHPLLVRSAIERQLDELLKRSDDDAAALFARPTLAKALQASTERDHLFVVLASPVAEVGRDHDYDWAIVEPSSMRSIIQLAGRIRRHRSGFSGEANLYLLSRNIRSLEGQNPAFQRPGFETPDFPLDSHDLHDLLDPALLARIDASPRIVEPFPLFPRSRLVDLEHRRLRALMLADDPPSSLLGVPLWWQTPASLSGALQTSQPFRAGAKERCYALLPDEDDEERLHFSRYEEGTWSNQDNLLRNLDLTYGPRIQTWGTVNYREELVAMAGREDLDLRQCAMRYGEVRLRENTQGWSYHPYLGFKKYN
notes: Two Cas2/3 subunits stand in the Cas1-2/3 heterohexamer, joined through the Cas2 homodimer; also called Cas3; Cas3a; source: E. coli BL21(DE3), co-expressed with StrepII-Cas1 from a single plasmid; in lysate, and purified with Cas1 (StrepTrap HP, Superdex 200)
B2: Cas1 (type I-F, Pseudomonas aeruginosa PA14), StrepII-tagged (enzyme)
chain: MDDISPSELKTILHSKRANLYYLQHCRVLVNGGRVEYVTDEGRHSHYWNIPIANTTSLLLGTGTSITQAAMRELARAGVLVGFCGGGGTPLFSANEVDVEVSWLTPQSEYRPTEYLQRWVGFWFDEEKRLVAARHFQRARLERIRHSWLEDRVLRDAGFAVDATALAVAVEDSARALEQAPNHEHLLTEEARLSKRLFKLAAQATRYGEFVRAKRGSGGDPANRFLDHGNYLAYGLAATATWVLGIPHGLAVLHGKTRRGGLVFDVADLIKDSLILPQAFLSAMRGDEEQDFRQACLDNLSRAQALDFMIDTLKDVAQRSTVSA
notes: Four Cas1 subunits (two homodimers) stand in the Cas1-2/3 heterohexamer; also called StrepII-tagged Cas1; Cas1a; source: E. coli BL21(DE3), co-expressed with Cas2/3 from a single plasmid; in lysate, and purified (StrepTrap HP, Superdex 200); not shown: StrepII, N-terminal, kept

Columns and labels:
[1] = biological target: the molecule itself; experiment: cryo-EM structure; Cas1-2/3 capture complex without nucleic acid, 12.8 uM, 3.3 Å
[2] = biological target: B2; experiment: SEC; affinity-purified Cas1-2/3 on Superdex 200 in 10 mM HEPES pH 7.5, 500 mM potassium glutamate, 10% glycerol; single peak, estimated ~380 kDa; conditions: both partners purified

Binder | stoichiometry N [1] | stoichiometry N [2]
B1 | 2 | 2 Cas1 per Cas2/3 (4:2)
B2 | 2 | 
